Assay results published in article doi:10.1101/2023.08.17.553727.

Target: B’β-GFP (Arabidopsis thaliana) (UniProt O04376)
Experiment: co-IP

UniProt O04376, sequence (O04376 whole entry): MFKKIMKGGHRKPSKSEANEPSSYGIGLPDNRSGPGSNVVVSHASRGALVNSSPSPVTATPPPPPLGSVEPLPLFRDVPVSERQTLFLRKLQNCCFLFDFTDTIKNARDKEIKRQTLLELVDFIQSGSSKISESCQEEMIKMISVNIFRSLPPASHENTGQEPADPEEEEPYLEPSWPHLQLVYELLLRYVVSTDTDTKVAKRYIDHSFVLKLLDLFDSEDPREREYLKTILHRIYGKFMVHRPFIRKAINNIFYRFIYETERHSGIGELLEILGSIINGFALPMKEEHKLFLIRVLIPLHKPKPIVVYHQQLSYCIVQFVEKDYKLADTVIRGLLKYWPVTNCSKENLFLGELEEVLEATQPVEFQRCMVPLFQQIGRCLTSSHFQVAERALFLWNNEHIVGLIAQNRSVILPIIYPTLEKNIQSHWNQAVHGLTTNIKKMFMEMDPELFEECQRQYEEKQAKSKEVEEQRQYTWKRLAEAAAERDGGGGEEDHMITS

binding ability to the C subunit relative to YFP-B’β (fold of YFP-B’β): 0.33
Substance: PP2A C subunit (from UniProt Q07099 1-306) (enzyme)
